Experimental data from the supplement of paper PMC9170038.

Tested on: MS2 coat protein
Assay: apparent KD of MS2 coat protein; designed switch direction (-1 OFF switch, 1 ON switch): -1; higher = weaker reporter binding
Outline: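 Three titration conditions were used: no input, 200 uM small-molecule ligand, and an oligonucleotide input. In each, SNAP-549-labelled MS2 coat protein was raised from 0.7 or 1.5 nM, doubling, to 3 µM over designed RNA switches transcribed on Illumina chips by stalled E. coli RNA polymerase. Curve fits of normalised cluster fluorescence gave values whose per-design median over clusters is the apparent KD.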

[1] = input ligand: microRNA oligo, concentration not stated
[2] = Eterna round: R95, input ligand: microRNA oligo, concentration not stated
[3] = Eterna round: R95, input ligand: FMN 200 uM
[4] = Eterna round: R95, input ligand: none

Row | Sequence | apparent KD of MS2 coat protein (input ligand: FMN 200 uM) | apparent KD of MS2 coat protein [1] | apparent KD of MS2 coat protein (input ligand: none) | apparent KD of MS2 coat protein [2] | apparent KD of MS2 coat protein [3] | apparent KD of MS2 coat protein [4]
1 | ACAUGAGGAUCACCCAUGUCUGGCUGGUCCGCUCCGGCUGUUGAGGAUAUAGCUCGGUGUCCGCGCUAGAAGGUGAGGGCUGGC [Aenatbe mod 34] (Eterna round: R96, puzzle: Exclusion NG 3) | 32.4 nM | 19.5 nM | 31.9 nM | – | – | –
2 | UUAGAUUAUUGAGGAUAUGGUUAUUUUUAUUAACCAGAAGGCAAACUCAACAUGAGGAUCACCCAUGUAUAAAGGGUAUUAGUU [JR_ExcNG1_Sub097] (Eterna round: R96, puzzle: Exclusion NG 1) | – | 71.9 nM | – | – | – | –
3 | AGCUGUGGCCGAGGAUAUCACGAACCAUGGAAAACCAUGGAACUCAAACAUGAGGAUCACCCAUGUGAGAAGGCGGUCUCAGCA [Eli eng2 - 018] (Eterna round: R96, puzzle: Exclusion NG 2) | – | 15.2 nM | – | – | – | –
4 | UCACAGUGAGGAUAUUUAAAAUCGGAACCAGUUACCCGGAUGAAGAAGGCACAUGAGGAUCACCCAUGUGGACG [Eternabot (L2) Solution 14] (Eterna round: R97, puzzle: Exclusion 4) | 16.7 nM | – | 15.3 nM | – | – | –
5 | GAUGCCAGAGGAUAUGCAUCGGGUUCCUGGUUAAGGCUGCCACAUGAGGAUCACCCAUGUAGAAGGCUGCCGUC [EX2 B.5] (Eterna round: R97, puzzle: Exclusion 2) | 17.4 nM | – | 9.94 nM | – | – | –
6 | GUGUAGUCAGGAUAUACAUAGGAAGAGAAGAGAAGAGAAGGACAUGAGGAUCACCCAUGUAGAAGGGACAGUGU [Excluse me!! 5 - Jieux - Exclusion 2] (puzzle: Exclusion 2) | – | – | – | 43.6 nM | – | –
7 | AUUAACAUGUUGAUCAAAUACAUGAGGAUCACCCAUGUAUGCUUUUUGCUCGAUAAGAUCAACUAAUUAAUUAAUUA [StovNew/1-B] (Eterna round: R97, puzzle: Sensor, turn-off variant 1) | 13.9 nM | – | 12.6 nM | – | – | –
8 | UAUUAGCAAGUGAGAUCCCACAUGAGGAUCACCCAUGUGCUCGUCUUAUAACGUACUGUGACGAAAGUCACGGUACG [Sensor-V1 #81] (Eterna round: R97, puzzle: Sensor, turn-off variant 1) | 52.9 nM | – | 47.2 nM | – | – | –
9 | ACCUUACUUGAGGAUCACCCAAGUCAGGAUAUACACCAGAAUAAAUCCCAGCCCUGGCGUAGAAGGGACGGGUG [Soesma] (Eterna round: R97, puzzle: Exclusion 1) | 23.9 nM | – | 21.8 nM | – | – | –
10 | GAAAAUGUGGAGGAUAUCGACUUCGAAAGAAGUCGAGAAGGCCACACAUGAGGAUCACCCAUGUGUUCCUUCAA [Omei Ex6 H2] (Eterna round: R97, puzzle: Exclusion 6) | 569 nM | – | 52.2 nM | – | – | –
11 | GUUUGCGCAGGAUAUACAUGAGGAUCACCCAUGUGAGAGAAAUAAGUGAGGAAGAAAAGUAGAAGGGCGUGACG [Mat - Exclusion 3 - Mod of Salish D71] (puzzle: Exclusion 3) | – | – | – | 34 nM | 171 nM | 42.8 nM
12 | UCUCGUAGGCAAGGAUAUCCUACAUUGUUCUGGCCCGGGCAUGCUACAUGAGGAUCACCCAUGUGGGAGAAGGUGCGCCACUGC [Design 27] (Eterna round: R96, puzzle: Exclusion NG 2) | 52.4 nM | 39.7 nM | 36.2 nM | – | – | –
13 | GUUAACGAUCAGGAUAUAUCAAAUCAUAGCUUGAUAGAAGGGAUCACAUGAGGAUCACCCAUGUGAUCUUCUUU [jl-ex6-4.14 ViennaUCT mod] (Eterna round: R97, puzzle: Exclusion 6) | 15.3 nM | – | 11.7 nM | – | – | –
14 | UAUUAGCAAGUAAGGUCCCACAUGAGGAUCACCCAUGUGCUCGUCUCCUCAGGUACGGAGCGGAAGCUCCCGAUAUG [Sensor-V1 #94] (Eterna round: R97, puzzle: Sensor, turn-off variant 1) | 87 nM | – | 102 nM | – | – | –
15 | UCGUGAUUAGAGGAUAUAUUAAGGGUCAGAACAAUAGAAGGCUAAACAUGAGGAUCACCCAUGUAAAUGGUUUU [JR_Ex6_Sub058] (Eterna round: R97, puzzle: Exclusion 6) | 183 nM | – | 70.7 nM | – | – | –
16 | UGUUGUUCAGGAUAUGGUGUGUUGUACAUGAGGAUCACCCAUGUGGGUCCUGGUUUGGCGUCAGAAGGGAAUGUUG [salish99_ex5_r4_118] (Eterna round: R97, puzzle: Exclusion 5) | 482 nM | – | 778 nM | – | – | –

Row | Sequence | apparent KD of MS2 coat protein (input ligand: FMN 200 uM) | apparent KD of MS2 coat protein [1] | apparent KD of MS2 coat protein (input ligand: none) | apparent KD of MS2 coat protein [2] | apparent KD of MS2 coat protein [3] | apparent KD of MS2 coat protein [4]
17 | UCGGCGCGAGGAUAUACGUUUGCUUUUUUGUGUCGUUGCGUACAUGAGGAUCACCCAUGUAGAAGGCGCGCCGC [Apr-15 SS2-24] (puzzle: Exclusion 2) | – | – | – | 16 nM | – | –
18 | AGUGCGUCAGGAUAUUCUAUUAAUUACAUGAGGAUCACCCAUGUGAAUGGACAAGGGUGUGAAGAAGGGACGUGCG [Omei Ex5 A17g] (Eterna round: R97, puzzle: Exclusion 5) | 360 nM | – | 872 nM | – | – | –
19 | UGAUCUUUUGUUAGGAUAUGCUGUUUUUUUUUUCAGCAGAAGGGACAUGAGGAUCACCCAUGUUUUGUCAUAAA [Magic-06] (puzzle: Brourd's mod of Exclusion 4) | – | – | – | 14.4 nM | – | –
20 | AAGAAGGCAGGAUAUACAAAAUAAAAGAAAAGAAAGAAAGAACAUGAGGAUCACCCAUGUAGAAGGGUCAAGAA [Sankhenre Sewadjtu] (Eterna round: R96, puzzle: Exclusion 2) | 52.2 nM | 46.3 nM | 60.7 nM | – | – | –
21 | UUUAUGUCAGGAUAUGAUUAGAUCUACUUCGGUAGAUCUAAUCAGAAGGGACAUGAGGAUCACCCAUGUAGUUU [Ex4 - 3 - 13] (Eterna round: R96, puzzle: Exclusion 4) | 671 nM | 137 nM | 180 nM | – | – | –
22 | GUCUUGAUAGGAUAUACAUGAGGAUCACCCAUGUCCCACCCGUUACCUCUGACCCUAUGUAGAAGGAUCGUCUG [Exy#18] (Eterna round: R97, puzzle: Exclusion 3) | 30.4 nM | – | 35.5 nM | – | – | –
23 | ACAUGAGGAUCACCCAUGUGAACGAAAAGGCUCAUGUAGAGUGAGGAUAUGUGAGACGAACGAGAACAGAAGGCACAAGACAGG [Deportation 1 - Jieux - Exclusion NG 3] (Eterna round: R96, puzzle: Exclusion NG 3) | 20.7 nM | 19.5 nM | 35.4 nM | – | – | –
24 | AAUAACAGAGGAUAUACUAUUUUAUGUGUUUGUUAUUUUGAACAUGAGGAUCACCCAUGUAGAAGGCUGAAUAA [JMF 22] (puzzle: Exclusion 2) | – | – | – | 21.7 nM | – | –
25 | UCAUGGUAGCAGGAUAUGCUUGUUUAAUUUUUUGCAGAAGGGCUAACAUGAGGAUCACCCAUGUGAGAGGUCUA [JR_E6_Sub065] (puzzle: Exclusion 6) | – | – | – | 64.3 nM | 31 nM | 144 nM
26 | AGAUGCUCAAGUCGACAUGAGGAUCACCCAUGUACAGUAAACGAGGAUAUCCGAGAUAAAUAAUAGGAGAAGGCGUGAUCAUGA [Mat - Exclusion NG 3 - Mod of JL - D55] (Eterna round: R96, puzzle: Exclusion NG 3) | 337 nM | 66 nM | 86.3 nM | – | – | –
27 | UAGAAUCGAGGAUAUACAUGAGGAUCACCCAUGUGUUGCCGCAUGAUAUGAUCGUCAGGUAGAAGGCGAUUAUA [Exclusion 3 - Mod of Jieux's Gilly Gone Silly 23 v.6] (puzzle: Exclusion 3) | – | – | – | 83.4 nM | 37.6 nM | 82.9 nM
28 | AAAACACAUGAGGAUCACCCAUGUGAGGAUAUGUUAAUUUUAAUGAAAAUUAAAAUUAACAGAAGGCACAGAAA [JR_Exclusion1_Sub024] (puzzle: Exclusion 1) | – | – | – | 45.6 nM | 46.3 nM | 54.2 nM
29 | GUCAGCUCGUCAGGAUAUACAUCACUGCUUCGGCAGUGUAUUAAGAUCACAUGAGGAUCACCCAUGUAGAAGGGACGAGCUGAC [ENG2/2-B1] (Eterna round: R96, puzzle: Exclusion NG 2) | 269 nM | 21.2 nM | 21.9 nM | – | – | –
30 | GCACGAAGUGUAGGAUAUCUGUGCGAUUAGCUCAGAGAAGGACACAUGAGGAUCACCCAUGUGUUCCGCGGAAGCAAAACGUGC [Eli exng1 - 056] (Eterna round: R96, puzzle: Exclusion NG 1) | 11.2 nM | 9.08 nM | 11.4 nM | – | – | –
31 | UAUUAGUAAGGAUAUGAGCCGUAGGACGAAAGUCCUACGGCUCAGAAGGUACAUGAGGAUCACCCAUGUUCAUU [Mod of Fisker 5 - Jieux - Exclusion 4] (Eterna round: R97, puzzle: Exclusion 4) | 17.7 nM | – | 15.9 nM | – | – | –
